Source: patent US20240124553A1

Tests used:
[1] = target: Sindbis virus strain TR339 (virions; also structural proteins on infected Vero cells) (Sindbis virus)
[2] = target: Sindbis virus strain TR339 (virions; also structural proteins on infected Vero cells) (Sindbis virus); test: cell-based or functional assay
[3] = target: Mayaro virus (MAYV) structural proteins on infected cells (Mayaro virus); test: flow cytometry, surface staining of MAYV-infected Vero cells with serial dilutions, % binding to infected cells

Du-D1-Mo-D2 MXRA8-Fc (chimeric duck D1 - mouse D2 MXRA8, duck stalk) (from UniProt Q9DBV4 23-65; Q9DBV4 195-293) (Fc fusion)
neutralisation of SINV-GFP infection; IC50 (read off the curve) [1]: 0.3 µg/mL | neutralization of SINV TR339 infection, EC50 against that of duck MXRA8-Fc [2]: 3 fold | EC50 (read off the curve) [3]: 0.04 µg/mL
